Paper PMC3797037, “Structural and Mechanistic Insight into DNA Unwinding by Deinococcus radiodurans UvrD” (PLoS ONE, 2013)
Changes are numbered by the printed parent chain.

What was measured:
drUvrD FL (WT) [1] = target: T1, drUvrD FL (WT) (Deinococcus radiodurans, UniProt Q9RTI9 1-745); assay: fluorescence anisotropy; 1 mM AMPPNP; Fluorescence anisotropy: buffer A (composition not in material) + 0.05% Tween 20, 0.1 mg/mL BSA, 1 mM AMPPNP; 2.5 nM DNA, 0-8 µM protein, 80 µl, room temperature; single-site fit; details: protein: recombinant, tags: N-terminal His-tag cleaved with TEV (pET151d), label: fluorescein (internal dT12), 25 bp duplex, other end blunt
T1 sequence: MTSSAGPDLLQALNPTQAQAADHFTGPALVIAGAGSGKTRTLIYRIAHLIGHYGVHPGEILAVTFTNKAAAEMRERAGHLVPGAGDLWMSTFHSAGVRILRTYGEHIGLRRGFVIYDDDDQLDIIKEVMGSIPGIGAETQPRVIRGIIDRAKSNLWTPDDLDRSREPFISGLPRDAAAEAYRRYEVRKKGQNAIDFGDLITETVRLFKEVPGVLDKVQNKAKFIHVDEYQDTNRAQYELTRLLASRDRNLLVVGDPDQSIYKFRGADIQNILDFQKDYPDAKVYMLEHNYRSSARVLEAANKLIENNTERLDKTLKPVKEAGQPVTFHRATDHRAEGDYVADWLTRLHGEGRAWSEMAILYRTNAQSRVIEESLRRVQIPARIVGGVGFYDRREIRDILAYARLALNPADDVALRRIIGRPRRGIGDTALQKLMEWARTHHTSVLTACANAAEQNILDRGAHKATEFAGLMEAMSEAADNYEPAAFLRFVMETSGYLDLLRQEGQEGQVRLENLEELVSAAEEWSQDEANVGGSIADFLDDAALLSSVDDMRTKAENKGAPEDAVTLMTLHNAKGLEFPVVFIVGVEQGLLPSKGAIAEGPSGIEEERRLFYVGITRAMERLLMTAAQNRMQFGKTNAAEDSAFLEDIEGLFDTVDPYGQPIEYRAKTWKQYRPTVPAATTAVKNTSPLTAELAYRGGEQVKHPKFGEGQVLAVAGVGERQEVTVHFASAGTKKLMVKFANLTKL

drUvrD G426T = target: T2, drUvrD G426T (Deinococcus radiodurans, UniProt Q9RTI9 1-745, G426T); assay: fluorescence anisotropy; 1 mM AMPPNP; not significantly different from WT; Fluorescence anisotropy: buffer A (composition not in material) + 0.05% Tween 20, 0.1 mg/mL BSA, 1 mM AMPPNP; 2.5 nM DNA, 0-8 µM protein, 80 µl, room temperature; single-site fit; details: protein: recombinant, tags: N-terminal His-tag cleaved with TEV (pET151d), label: fluorescein (internal dT12), 25 bp duplex, other end blunt
T2 sequence: T1 sequence with G426T

[2] = substrate: Nc1ncnc2c1ncn2[C@@H]1O[C@H](COP(=O)(O)OP(=O)(O)OP(=O)(O)O)[C@@H](O)[C@H]1O; assay: spectrophotometric ATPase assay; type: biochemical, Deinococcus radiodurans; details: ssDNA-stimulated: excess 25mer polydT (10xKssDNA), ATP 0-1 mM, 100 nM enzyme, 5 mM MgCl2, 100 mM NaCl, pH 8.0, 25°C
Description: spectrophotometric ATPase assay on drUvrD^FL | determine their apparent turnover rates (Kcat) for ATP hydrolysis, along with their Km for ATP

drUvrDΔC [3] = target: T3, drUvrDΔC (Deinococcus radiodurans, UniProt Q9RTI9 1-665, del666-745); assay: X-ray crystallography (3.0 Å); fluorescein-dT21 DNA; Fluorescence anisotropy: buffer A (composition not in material) + 0.05% Tween 20, 0.1 mg/mL BSA, 1 mM AMPPNP; 2.5 nM DNA, 0-8 µM protein, 80 µl, room temperature; single-site fit; details: protein: recombinant; tags: N-terminal His-tag cleaved with TEV (pET151d); chain copies: 2; label: fluorescein (internal dT21); 18 bp duplex, 3' overhang 7 nt at both ends
T3 sequence: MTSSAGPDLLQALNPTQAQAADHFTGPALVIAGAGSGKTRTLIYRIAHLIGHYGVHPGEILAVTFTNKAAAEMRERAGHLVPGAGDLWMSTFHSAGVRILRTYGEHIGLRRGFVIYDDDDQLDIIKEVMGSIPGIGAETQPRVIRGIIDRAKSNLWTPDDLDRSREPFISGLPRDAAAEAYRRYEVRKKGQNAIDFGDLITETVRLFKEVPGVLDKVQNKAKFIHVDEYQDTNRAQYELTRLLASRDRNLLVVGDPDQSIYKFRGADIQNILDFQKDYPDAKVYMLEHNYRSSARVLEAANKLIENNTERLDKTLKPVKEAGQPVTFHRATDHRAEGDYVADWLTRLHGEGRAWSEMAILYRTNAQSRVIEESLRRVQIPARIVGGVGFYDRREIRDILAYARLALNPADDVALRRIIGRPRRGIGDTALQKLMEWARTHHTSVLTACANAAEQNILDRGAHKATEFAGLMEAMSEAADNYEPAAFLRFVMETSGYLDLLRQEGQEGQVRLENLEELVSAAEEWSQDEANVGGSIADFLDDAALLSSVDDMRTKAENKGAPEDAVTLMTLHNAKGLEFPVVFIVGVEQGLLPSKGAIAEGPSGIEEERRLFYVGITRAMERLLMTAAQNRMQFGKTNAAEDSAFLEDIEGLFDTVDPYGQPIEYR

drUvrD FL (WT) [4] = target: T1, drUvrD FL (WT); assay: X-ray crystallography (4.0 Å); AMPPNP, P21; Fluorescence anisotropy: buffer A (composition not in material) + 0.05% Tween 20, 0.1 mg/mL BSA, 1 mM AMPPNP; 2.5 nM DNA, 0-8 µM protein, 80 µl, room temperature; single-site fit; details: protein: recombinant; tags: N-terminal His-tag cleaved with TEV (pET151d); 21 bp duplex, 3' overhang 7 nt (dT7) at both ends
[5] = substrate: Nc1ncnc2c1ncn2[C@@H]1O[C@H](COP(=O)(O)OP(=O)(O)OP(=O)(O)O)[C@@H](O)[C@H]1O; assay: spectrophotometric ATPase assay; type: biochemical, Deinococcus radiodurans; details: ssDNA-stimulated: excess 25mer polydT (10xKssDNA), ATP 0-1 mM, 100 nM enzyme, 5 mM MgCl2, 100 mM NaCl, pH 8.0, 25°C; remark: listed apart in the source
Description: spectrophotometric ATPase assay on drUvrD^∆C | ATPase data measured on drUvrD^FL and drUvrD^∆C

drUvrDΔC [6] = target: T3, drUvrDΔC; assay: X-ray crystallography (2.5 Å); AMPPNP, form I, P212121; Fluorescence anisotropy: buffer A (composition not in material) + 0.05% Tween 20, 0.1 mg/mL BSA, 1 mM AMPPNP; 2.5 nM DNA, 0-8 µM protein, 80 µl, room temperature; single-site fit; details: protein: recombinant; tags: N-terminal His-tag cleaved with TEV (pET151d); chain copies: 2; 18 bp duplex, 3' overhang 7 nt (dT7) at both ends
[7] = 5' overhang 15 nt (dT15) on strand 2
[8] = 3' overhang 15 nt (dT15) on strand 2

B1: 5'-tailed dsDNA (H1T12/H5-15) (dsDNA)
DNA 1: TCGGTACGACCTGCGAGCACTGCTT
DNA 2: TTTTTTTTTTTTTTTAAGCAGTGCTCGCAGGTCGTACCGA
modifications: fluorescein-dT at position 12 of strand 1
B1 was tested, and the Kd (drUvrD FL (WT) [1]; [7]) was 480 nM and the binding result (drUvrD G426T; [7]) was “binds”.

B2: 3'-tailed dsDNA (H1T12/H3-15) (dsDNA)
DNA 1: TCGGTACGACCTGCGAGCACTGCTT
DNA 2: AAGCAGTGCTCGCAGGTCGTACCGATTTTTTTTTTTTTTT
modifications: fluorescein-dT at position 12 of strand 1
In the case of B2, the Kd (drUvrD FL (WT) [1]; [8]) is reported as 360 nM and the binding result (drUvrD G426T; [8]) is reported as “binds”.

B3: drUvrD^FL (Deinococcus radiodurans R1 = ATCC 13939 = DSM 20539) (protein)
chain: T1 sequence
notes: full-length (residues to 745), pET151d, E. coli BL21 (DE3), N-terminal His-tag cut with TEV protease; crystallized as a monomer, two per DNA duplex
Binder B3 has a Km [2] of 62.1 ± 6.6 µM and a kcat [2] of 149.3 ± 3.5 s⁻¹.

B4: For25-21F/Rev25-21F (dsDNA)
DNA 1: GCAGTGCTCGCAGGTCGTTTTTTTT
DNA 2: ACGACCTGCGAGCACTGCTTTTTTT
modifications: fluorescein-dT at position 21 of both strands
B4: binds (drUvrDΔC [3]).

B5: For28/Rev28 (dsDNA)
DNA 1: GCAGTGCTCGCAGGTCGTACCTTTTTTT
DNA 2: GGTACGACCTGCGAGCACTGCTTTTTTT
B5: binds (drUvrD FL (WT) [4]).

B6: drUvrD^∆C (Deinococcus radiodurans R1 = ATCC 13939 = DSM 20539) (protein)
chain: T3 sequence
notes: C-terminally truncated, missing residues 666-745; pET151d, E. coli BL21 (DE3), N-terminal His-tag cut with TEV protease; crystallized as a monomer, two per DNA duplex
B6 showed a Km [5] of 77.0 ± 16.9 µM and a kcat [5] of 213.2 ± 11.7 s⁻¹.

B7: For25/Rev25 (dsDNA)
DNA 1: GCAGTGCTCGCAGGTCGTTTTTTTT
DNA 2: ACGACCTGCGAGCACTGCTTTTTTT
B7: binds (drUvrDΔC [6]).
